B1: Yak enterovirus (nucleic acid, listed as Enterovirus sp.)
DNA: CTCCGGCACAGCCGCACCAGTGCACTGGTACGCTAGTACCTTTTCACGGGGTAGTCGGTATCCCCCCCCGTAACTTAGAAGCATGTAACAAACCGACCAATAGGTGCGCGGCAGCCAGCTGCGTTGCGGTCAAGCACTTCTGTCTCCCCGGTCCGCAAGGATCGTTACCCGCCCACTCCACTACGAGGAGCCTAGTAACTGGCCAAGTGATTGCGGAGTTGCGTTCAGCCACAACCCCAGTGGTAGCTCTGGAAGATGGGGCTCGCACATCCCCCGTGGTAACACGGTTGCTTGCCCGCGTGTGCTTCCGGGTTCAGTCTCCGACTGTTCACTTCAACATCACGCAACCAGCCAAGAGCCGATTGTGCTGGAGTGGTCTTCCTCCGGGGCCGTGAATGCTGCTAATCCTAACCTCCGAGCGTGTGCGCACAATCCAGTGTTGCTACGTCGTAACGCGTAAGTTGGAGGCGGAACAGACTACTTTCGGCACCCCGTGTTTCCTTTATTTTATTCTTATTTTATGGTGACAATTGCAGAGATTTGTGATATTGCGACTTTACCGTTAAACATAGCACTGCATTACCTGGTTGCATTCCACAAAACTTCAGAGATTCCTAGTTCCTACATTGACCTACTTGTTTATTTGAATCTTAAATACAAACTTGAGCAAGTGAA
B2: Seneca valley virus (nucleic acid)
DNA: TTTGAAATGGGGGGCTGGGCCCTGATGCCCAGTCCTTCCTTTCCCCTTCCGGGGGGTTAACCGGCTGTGTTTGCTAGAGGCACAGAGGGGCAACATCCAACCTGCTTTTGCGGGGAACGGTGCGGCTCCGATTCCTGCGTCGCCAAAGGTGTTAGCGCACCCAAACGGCGCACCTACCAATGTTATTGGTGTGGTCTGCGAGTTCTAGCCTACTCGTTTCTCCCCCGACCATTCACTCACCCACGAAAAGTGTGTTGTAACCATAAGATTTAACCCCCGCACGGGATGTGCGATAACCGTAAGACTGGCTCAAGCGCGGAAAGCGCTGTAACCACATGCTGTTAGTCCCTTTATGGCTGCAAGATGGCTACCCACCTCGGATCACTGAACTGGAGCTCGACCCTCCTTAGTAAGGGAACCGAGAGGCCTTCGTGCAACAAGCTCCGACACAGAGTCCACGTGACTGCTACCACCATGAGTACATGGTTCTCCCCTCTCGACCCAGGACTTCTTTTTGAATATCCACGGCTCGATCCAGAGGGTGGGGCATGACCCCTAGCATAGCGAGCTACAGCGGGAACTGTAGCTAGGCCTTAGCGTGCCTTGGATACTGCCTGATAGGGCGACGGCCTAGTCGTGTCGGTTCTATAGGTAGCACATACAAAT
modifications: source: /note="Description of Unknown: Seneca valley virus sequence"
B3: Sclerotinia sclerotiorum dsRNA mycovirus-L (nucleic acid)
DNA: TTGAATTAATCTTTTACGTTTACGCGCATAAAATCAGGACACATCTCTTGTATACTTTAGTATATCAATGATGTTTTTGTTTTATGCGATTAATCGTAAGAGAACTTCTTTCCATCCGCCTGTATGGGCGGGATAATAAGTTCACCGCCTTGGTCGAGGCGCAAACTTGTATGTGCAAAGGTGAGCTATATGCTCGAAATAGTCGTAACTAACACACAGCCACTACCTGTAGAGCTCTATTGATCCGGAATCCTTTAGTGGGAATGCAGAGCTCACACCGGACCTGCGGGTATCTTCGGCGTTAGGGACTTCTGTTTCAGCCTTGAATCATTTACCTTTATACCTTCTCTGAGGCGCCTGGGCCGGGCGCGATATTAAGTACAAGTCAAGGACATCGCGGGTAGTGGTCTAATCAGCCGCTAGTCCTGCTGGAGAGTTCCAACTTAGTTGGGTGTGGTGCATACTAGCTGGATAGAGTAGGTATGTATTGCTAACGTATGCCGGAGGCTATCCGTCCTCGGTAGAACGTGCCGAGGAGTAGTCTCTGCAGACCCCCGAACGCGTGGGGTCTTTACTTAAATGTAGGCGGAGGGAGCGCTCGTAGGTGGAACGACTGCCTCCCAGTCGAATGCAAGATTTTGCACGCGGACCAGTCTGCCCGGCAATTCCCGGGTG
modifications: source: /note="Description of Unknown: Sclerotinia sclerotiorum dsRNA mycovirus-L sequence"
B4: Picornavirales sp. isolate RtMruf-Pico V (nucleic acid)
DNA: TTTGCTCAGCGTAACTTCTCCGGGTTACGTGGAGACCAAAAGGCTACGGAGACTCGGGCTACGGCCCTGGAGCACCTAGGTGCTCCTAAAGACGTTAGAAGTTGTACAAACTCGCCCAATAGGGCCCCCCAACCAGGGGGGTAGCGGGCAAGCACTTCTGTTTCCCCGGTATGATCTCATAGGCTGTACCCACGGCTGAAAGAGAGATTATCGTTACCCGCCTCACTACTTCGAGAAGCCCAGTAATGGTTCATGAAGTTGATCTCGTTGACCCGGTGTTTCCCCCACACCAGAAACCTGTGATGGGGGTGGTCATCCCGGTCATGGCGACATGACGGACCTCCCCGCGCCGGCACAGGGCCTCTTCGGAGGACGAGTGACATGGATTCAACCGTGAAGAGCCTATTGAGCTAGTGTTGATTCCTCCGCCCCCGTGAATGCGGCTAATCCCAACTCCGGAGCAGGCGGGCCCAAACCAGGGTCTGGCCTGTCGTAACGCGAAAGTCTGGAGCGGAACCGACTACTTTCGGGAAGGCGTGTTTCCTTTTGTTCCTTTTATCAAGTTTTATGGTGACAACTCCTGGTAGACGTTTTATTGCGTTTATTGAGAGATTTCCAACAATTGAACAGACTAGAACCACTTGTTTTATCAAACCCTCACAGAATAAGATAACA
modifications: lipid formulation; source: /note="Description of Unknown: Picornavirales sp. isolate RtMruf-PicoV sequence"
B5: Rabovirus A (nucleic acid)
DNA: CTACGGATATTTGCATGACCCGCTTTCTATCGCCCCAACAATCCCCTTTGTAACCACAAGCTTTACTCAGGCTAGCAGCCCGACTAGCTGTTTGGAAGAAAAGGCTAGGGCACACACCAACAACACCGACCCCACTGGTCGAAGGCCGCTTGGCAATAAGACTGGTGGAACAGGGTCGCCTGTAGTTGTTTGGAACATTCTTTCTAATGACTTTGTCAGCGGTGCTACTCACACCGTAACTCTTCTACCCTATCCCCACGCTTGTGGAACTAGGAGGGGATGAGTGATTCAAGTAAGTACTGTCAGAATGGTGAAAATGATCTGATTCTGAAACGCTATGGATCCATCGAAAGATGGGGCTACACGCCTGCGGAACAACACATGGTAACATGTGCCCCAGGGGCCGAAAGCCACGGTGATAGGATCACCCGTGTAGTTTGAGATCATATCAATGTTCATAGTCTAGTAAGATGATTTGAAATCTAACTGAGCTGATGGCTAACTGCTTGTCTTATTGCGGCCTAAGGATGTCCTGCAGGTACCTTTAGATAACCTTAAGAGACTATTGATCTGAGCAGGAGCCAAAGTGGTCTTTCCCAGCTTTGGTTAAAAAACGTCTAAGCCGCGGCAGGGGGCGGGAGGCCCCCTTTCCTCCCAAAACTTAATATTGATTGT
modifications: lipid formulation; Rabovirus A
B6: Wobbly possum disease virus (nucleic acid)
DNA: CGGCTGTGAGTGCTTAGCATATGCTAGAGTACTACAGCCGGGTGTTGGAGTCATATGCACTGGTTGCCTGTATAATAGTCGGGATCTGTCTGACCTACATTATCTTTGGGAGTTGCTTATCACGACAATTCTCGAAGTGTCTGTCGACAGCTTACCCCCGATTCGACAAGGCCCCTTGTCCACCGCAGACCTATCGATTTTCAACGAGAACACTATCAGAGGTTTAAATTTAAAACTCACCAACA
modifications: source: /note="Description of Unknown: Wobbly possum disease virus sequence"
B7: Avian orthoreovirus segment S1 (nucleic acid, listed as Avian orthoreovirus)
DNA: GCTTTTTCAATCCCTTGTGTCGATGTTCCCGTATGTCATCTGGTTCATGTAACGGTGCAACTTCTATTTTTGGTAACGTTCACTGTCAGGCAGCGCAAAACTCGGCGGGTGGTGATCTTCAAGCGACTTCCTCTCTTGTTGCTTATTGGCCCTACTTGGCTGCGGGCGGTGGTCTGCTCGTTGTTATTATTATAATTGTTGGCGCTGTTTGTTGTTGCAAGGCTAAGGTTAAAGCGGACGCAGCCCGAAACGTTTTCTACCGAGAGCTGTTCGCACTTAATTCGGGTAAAAGTGATGCAGGACCTCCGATTTACCAGGTTTAGTGTACGACGATTTGAGTTTTCACCTTTCGTCTTAGAGGAGTGCACTACTCCATCTTTCACGACTATAACTAATACCGATCCGGCTCTCTACTTTAACATTGAGTTTCCGTCAAGTCATCGTCTCTCCCCCTTCATTCCAGAACTGTTGTCTCAGCCTTGTACCGTTCACGTTTCATTGATTCGGAGATTCGCTCTCTGTGCAACCTTATCTAGTATTTGTGAATACGACTGTGCGCTACTGCCATCCATCAACGCTATTACGACGATCCCTACACCAGGTGCGTCATCATCTCTGATTGTTCATTGGG
B8: Shingleback nidovirus 1 (nucleic acid)
DNA: CTGTGAGTACCGACAGGCTCGAAGTCTATTATGAGGCGTCGAAACAGAAAACCTGTAACAACTCCGGTTTCATCTATCACTGCCGTCAAGAGGCAGAAGAGGACGACCACGTGTCACCAGATCACTTGTATCTGTTTCAGTCAGGAAGTCAACTTTTCGACGAAGTTCGACCATTCATCGACCCGCTGAAAAGCGTAGAAGTCGATGAAGATGAGCTCCAAAGAGCCATCGCCGATTTCGACAACCAAAGTGACTGTTTCCACTCCTTCGAGCTCGTGAATTTCGAGCTGAAACAACAAATCAACGAGAACGAGTGGTACGGTTATTATAATTACGACAACCAAAACTGCAAAGTTCAGTTGCCAGTCACATGTCGAATCGAGGACGTAACCTGGGATCAGGTTTACGTG
modifications: Shingleback nidovirus 1

The values that follow come from patent publication US20240245805A1 (Orna Therapeutics, Inc., priority 2020, published 2024).

For this data set, the system named is HEK293 cells. In kind it is cell-based, human. The following applies: circular RNA encoding Gluc with the listed IRES (UTR truncated to 675 nt) transfected into HEK293 cells; supernatant after 24 hours.
As to B1, the “Expression (luminescence from secreted Gluc protein)” value (“Expression” for short) is reported as 6.19E+06. In the case of B2, the “Expression” value is on record as 1.46E+07. The figure for B3 is 1.69E+05.

On to B4, for which the “Expression” value is reported as 2.26E+08. As for B5, the “Expression” value amounted to 2.88E+06. For the molecule B6, the “Expression” value came to 2.60E+05. In the case of B7, the “Expression” value is 4.37E+05. Turning to B8, the “Expression” value is recorded as 2.62E+05.
